Data on one molecule can be found in PMC7263589, “Integration of phage and yeast display platforms: A reliable and cost effective approach for binning of peptides as displayed on-phage” (PLoS ONE, 2020).

Experiment [1] deals with IL-23 binding to IL-23R. Put plainly: Competition SPR: IL-23 binding to captured IL-23R-Fc-AVI in the presence of peptide. The settings on record: concentration tested 0.1 μM; 20 nM IL-23, IL-23R-Fc-AVI on Protein-A, 30 s injection, 1% BSA buffer; n = 1. As to the method: SPR (Biacore T200, GE Healthcare) was used to determine binding constants of the peptides against IL-23 and their competitiveness to IL-23R. All SPR experiments were performed at 25°C with flow rate of 50 μl/min. Assay buffer used in direct binding experiment was 10 mM HEPES pH 7.5, 150 mM NaCl, 0.005% P20, and 3% DMSO. Assay buffer used in competition experiment was 10 mM HEPES pH 7.5, 150 mM NaCl, 0.005% P20, and 1% BSA. All peptides were reconstituted first in DMSO as 10 mM stocks and then diluted into assay buffer. The proteins used in direct binding and competition SPR are described in S1 Table in S1 File. For direct binding of peptides against IL-23, 2000–9000 RU of IL-23-AVI was captured to streptavidin sensor chips (GE Healthcare, Series S Sensor Chip SA, BR-1005-31). Dilution series with 3-fold increment were prepared for each peptide. Initially, all peptides were tested up to 30 μM. […] IL-23 at 20 nM without peptide, “IL-23 only”, was used as control to quantify IL-23 binding without blockage; while “cold” IL-23R was used as a positive control for blockage.
The design of competition SPR was based on a knockdown assay (Fig 5A). […] Response levels of IL-23 plus peptide were measured post injection (Fig 5B) to avoid possible bulk RI difference between analyte and running buffer. […]

For experiment [2], the target named is T1, IL-23 (Homo sapiens, UniProt P29460+Q9NPF7).
T1 construct: made in house
T1 sequence (Q9NPF7 20-189): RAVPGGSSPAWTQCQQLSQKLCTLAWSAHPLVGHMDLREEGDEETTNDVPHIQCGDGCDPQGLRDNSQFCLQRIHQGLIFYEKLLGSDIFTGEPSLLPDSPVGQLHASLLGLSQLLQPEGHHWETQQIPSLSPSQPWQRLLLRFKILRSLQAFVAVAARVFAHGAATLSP
T1 sequence (P29460 23-328): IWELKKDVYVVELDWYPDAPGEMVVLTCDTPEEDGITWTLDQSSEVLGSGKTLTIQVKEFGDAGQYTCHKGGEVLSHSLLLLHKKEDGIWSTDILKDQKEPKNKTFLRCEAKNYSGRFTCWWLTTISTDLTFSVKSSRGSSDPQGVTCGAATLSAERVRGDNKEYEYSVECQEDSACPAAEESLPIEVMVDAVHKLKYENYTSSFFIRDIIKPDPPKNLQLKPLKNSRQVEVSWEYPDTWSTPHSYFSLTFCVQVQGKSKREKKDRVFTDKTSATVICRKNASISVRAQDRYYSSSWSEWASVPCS
Briefly: SPR direct binding to captured IL-23-AVI (Biacore T200). The settings on record: IL-23-AVI captured on streptavidin chip, 25°C, 1:1 binding model, n = 1, 23–447 an estimate. As to the method: SPR (Biacore T200, GE Healthcare) was used to determine binding constants of the peptides against IL-23 and their competitiveness to IL-23R. All SPR experiments were performed at 25°C with flow rate of 50 μl/min. Assay buffer used in direct binding experiment was 10 mM HEPES pH 7.5, 150 mM NaCl, 0.005% P20, and 3% DMSO. Assay buffer used in competition experiment was 10 mM HEPES pH 7.5, 150 mM NaCl, 0.005% P20, and 1% BSA. All peptides were reconstituted first in DMSO as 10 mM stocks and then diluted into assay buffer. The proteins used in direct binding and competition SPR are described in S1 Table in S1 File. For direct binding of peptides against IL-23, 2000–9000 RU of IL-23-AVI was captured to streptavidin sensor chips (GE Healthcare, Series S Sensor Chip SA, BR-1005-31). Dilution series with 3-fold increment were prepared for each peptide. Initially, all peptides were tested up to 30 μM. Concentration range for some were then lowered accordingly based on affinity or nuisance behavior at high concentrations. SPR “multi-cycle” type was used for peptides 23–644, 23–437, 23–441, 23–446, and 23–447. Each cycle consisted of 30s of analyte injection and then 60s of buffer flow to monitor dissociation. “Single cycle kinetics” (SCK) type was used for 23–652 due to their long dissociation half-lives. Each SCK cycle consisted of five 60s injections of sample in increasing concentration with a final 600s of dissociation. To study IL-23 and IL-23R interaction, 200–1000 RU of IL-23-AVI and IL-23R-Fc-AVI were captured to streptavidin sensor chip. Dilution series with 3-fold increment of IL-23R-FLAG-HIS and IL-23-HIS were run in SCK cycle type as described above except the final dissociation time were 60-300s. Sensorgrams from the entire titration series for each sample were fitted globally to extract binding kinetics and affinity using Biacore T200 Evaluation Software 2.0 (GE Healthcare) according to a 1:1 binding model. To identify IL-23 binders that can block receptor binding, a competition SPR was established. In each SPR cycle, fresh IL-23R was capture (<1000 RU) by injecting 10 μg/ml of IL-23R-Fc-AVI to a Protein-A flow cell at 10 μl/min flow rate for 30s. Analyte consisted of a mixture of 20 nM of IL-23 protein and a single concentration of peptide was then injected for 30s at 50 μl/min to observe IL-23 binding. Finally, the Protein-A surface was regenerated by 10 mM Glycine pH 1.5 for 30s at 30 μl/min. IL-23 at 20 nM without peptide, “IL-23 only”, was used as control to quantify IL-23 binding without blockage; while “cold” IL-23R was used as a positive control for blockage.

B1: IL-23R: IL23R ECD (aa 1-353) with C-terminal Flag and HIS tags produced in HEK293 cells; positive control for blockage (protein)
chain: GITNINCSGHIWVEPATIFKMGMNISIYCQAAIKNCQPRKLHFYKNGIKERFQITRINKTTARLWYKNFLEPHASMYCTAECPKHFQETLICGKDISSGYPPDIPDEVTCVIYEYSGNMTCTWNAGKLTYIDTKYVVHVKSLETEEEQQYLTSSYINISTDSLQGGKKYLVWVQAANALGMEESKQLQIHLDDIVIPSAAVISRAETINATVPKTIIYWDSQTTIEKVSCEMRYKATTNQTWNVKEFDTNFTYVQQSEFYLEPNIKYVFQVRCQETGKRYWQPWSSLFFHKTPETVPQVTSKAFQHDTWNSGLTVASISTGHLTSDNRGDIGLLLGMIVFAVMLSILSLIGIFNRSFRTGIKRRILLLIPKWLYEDIPNMKNSNVVKMLQENSELMNNNSSEQVLYVDPMITEIKEIFIPEHKPTDYKKENTGPLETRDYPQNSLFDNTTVVYIPDLNTGYKPQISNFLPEGSHLSNNNEITSLTLKPPVDSLDSGNNPRLQKHPNFAFSVSSVNSLSNTIFLGELSLILNQGECSSPDIQNSVEEETTMLLENDSPSETIPEQTLLPDEFVSCLGIVNEELPSINTYFPQNILESHFNRISLLEK
modifications: fluorescent label (dye and site not stated)
Turning to B1, the “Competition SPR %Inhibition” value in experiment [1] turned out to be 98.0%. Also, in experiment [2], the kd was 0.00151 s⁻¹. Also, the ka in experiment [2] (50 μl/min, 10 mM HEPES pH 7.5, 150 mM NaCl, 0.005% P20, 3% DMSO, multi-cycle (single cycle kinetics for 23–652 and IL-23R)) was 170000 M⁻¹ s⁻¹.
